Source: PMC2859980
Where a chain is given by its changes, count along the chain named. Names and notes keep the numbering of the source.

Columns and labels:
[1] = T cell IFN-γ ELISA after acid stripping and re-expression; settings: glycan gained; control: same cells without z-vad-fmk
[2] = cytosolic fraction SDS-PAGE, anti-flag immunoblot; settings: glycan gained; control: untreated (cycloheximide only)

B1: tyrosinase: z-vad-fmk, R402Q tyrosinase cells (protein)
parent chain: MLLAVLYCLLWSFQTSAGHFPRACVSSKNLMEKECCPPWSGDRSPCGQLSGRGSCQNILLSNAPLGPQFPFTGVDDRESWPSVFYNRTCQCSGNFMGFNCGNCKFGFWGPNCTERRLLVRRNIFDLSAPEKDKFFAYLTLAKHTISSDYVIPIGTYGQMKNGSTPMFNDINIYDLFVWMHYYVSMDALLGGSEIWRDIDFAHEAPAFLPWHRLFLLRWEQEIQKLTGDENFTIPYWDWRDAEKCDICTDEYMGGQHPTNPNLLSPASFFSSWQIVCSRLEEYNSHQSLCNGTPEGPLRRNPGNHDKSRTPRLPSSADVEFCLSLTQYESGSMDKAANFSFRNTLEGFASPLTGIADASQSSMHNALHIYMNGTMSQVQGSANDPIFLLHHAFVDSIFEQWLQRHRPLQEVYPEANAPIGHNRESYMVPFIPLYRNGDFFISSKDLGYDYSYLQDSDPDSFQDYIKSYLEQASRIWSWLLGAAMVGAVLTALLAGLVSLLCRHKRKQLPEEKQPLLMEKEDYHSLYQSHL
- other: MHC class I epitope presentation [1]: decreases

B2: tyrosinase: z-vad-fmk, N371D R402Q tyrosinase cells (protein)
parent chain: B1 parent chain with N371D
- other: MHC class I epitope presentation [1]: no change

B3: tyrosinase: z-vad-fmk (protein)
parent chain: B1 parent chain with Q402R
- degradation_or_half_life [2]: no change
